The labels stand for the following.
B1: CPEB3 Ribozyme (parent)
chain: UAACAGGGGGCCACAGCAGAAGCGUUCACGUCGCAGCCCCUGUCAGAUUCUGGUGAAUCUGCGAAUUCUGCUGUAUAUCUC

Self-cleavage data for 167 variants are collected here from the RNAGym collection of RNA variant scans (doi:10.1093/nar/gkz1192).

The series covers variants of B1. The series can be described thus: self-cleavage, relative activity (ratio to wild type); higher = more cleavage; in vitro, sequencing. Put shortly: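 Libraries of CPEB3 self-cleaving ribozyme mutants came from rounds of error-prone PCR and carried barcodes, which DNA sequencing matched to variants. In vitro transcription used T7 RNA polymerase at 37°C for 5 hours, with a further 15 min in DNase I before EDTA stopped the reaction; the ribozymes cleaved during both steps. The RNA was reverse transcribed with template switching and sequenced on Illumina. Relative activity is the cleaved/total read fraction of a variant divided by that of the unmutated ribozyme, averaged over three batches with at least 5 reads.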
With G16A C39U, the self-cleavage came out at 0.15.

For G16A C39A, the self-cleavage was found to be 0.33.

Consider G16A U74C, for which the self-cleavage was 0.77.

In the case of G16A U74A, the self-cleavage amounted to 1.21.

Consider A15U U48G, for which the self-cleavage was found to be 0.35.

A15U U48A: the self-cleavage is 0.17.

As to A15U U48C, the self-cleavage was found to be 0.33.

For the variant A15U U58A, the self-cleavage came to 0.16.

For A15U U58C, the self-cleavage is 0.26.

With C17A A45U, the self-cleavage stood at 0.22.

Take G16C U43C: the self-cleavage worked out at 0.21.

For the variant G16U A57G, the self-cleavage worked out at 0.26.

Turning to C17G A57G, the self-cleavage is 0.51.

Take G16A U60C: the self-cleavage is 0.19.

On to C17A U66C, for which the self-cleavage stood at 0.07.

Turning to C17G U48C, the self-cleavage worked out at 0.2.

As for G16C G52U, the self-cleavage came out at 0.48.

As to G16U A45U, the self-cleavage was found to be 0.21.

In the case of G16U A45G, the self-cleavage stood at 0.21.

Take C17G U49C: the self-cleavage stood at 0.06.

Regarding A15U U78A, the self-cleavage was determined as 0.48.

On to A15U U78C, for which the self-cleavage amounted to 0.7.

For the variant G16U U25A, the self-cleavage came out at 0.2.

As to C17U C68U, the self-cleavage worked out at 0.51.

G16C U74C: the self-cleavage was determined as 0.25.

As to G16C U74A, the self-cleavage is 0.38.

Regarding G16C A64U, the self-cleavage is 0.28.

Consider G16U U67C, for which the self-cleavage came to 0.09.

For G16U U67A, the self-cleavage was 0.19.

As to G16U U69C, the self-cleavage was found to be 0.13.

With G16U U69A, the self-cleavage amounted to 0.22.

As for C17A U31A, the self-cleavage was found to be 0.15.

As for G16U U60G, the self-cleavage came out at 0.21.

On to C17G U54A, for which the self-cleavage came out at 0.54.

Regarding G16A C37U, the self-cleavage amounted to 0.24.

Regarding A15U U51A, the self-cleavage worked out at 0.82.

On to A15U U51G, for which the self-cleavage came to 0.89.

As to A15U U51C, the self-cleavage worked out at 0.54.

As for G16A U41A, the self-cleavage is 0.1.

Take G16A U41G: the self-cleavage was 0.12.

As to G16A U41C, the self-cleavage came to 0.49.

For A15U U26C, the self-cleavage is 0.25.

Regarding A15U U26A, the self-cleavage amounted to 0.54.

Consider A15U U26G, for which the self-cleavage came out at 0.44.

Consider C17U G24C, for which the self-cleavage was 0.11.

Take G16U A35U: the self-cleavage came to 0.23.

As to C17G A18G, the self-cleavage turned out to be 0.11.

With C17G A18U, the self-cleavage was determined as 0.4.

Turning to A15U C81A, the self-cleavage was found to be 0.32.

For A15U C81U, the self-cleavage amounted to 1.14.

Take G16U U76A: the self-cleavage stood at 0.33.

C17A: the self-cleavage was 0.32.

On to C17G, for which the self-cleavage worked out at 0.35.

As for C17U, the self-cleavage was 0.73.

On to A15U C79A, for which the self-cleavage worked out at 1.03.

Consider A15U C79U, for which the self-cleavage was found to be 1.14.

As to A15U C79G, the self-cleavage was determined as 1.08.

In the case of C17U G30U, the self-cleavage came to 0.09.

On to G16C G36U, for which the self-cleavage is 0.17.

Take C17U G53C: the self-cleavage stood at 0.66.

Turning to G16A U72C, the self-cleavage worked out at 0.79.

Consider G16A U72G, for which the self-cleavage was 0.16.

With G16A U72A, the self-cleavage worked out at 0.36.

Turning to C17U A64U, the self-cleavage worked out at 0.3.

Regarding C17U A64G, the self-cleavage was determined as 0.52.

C17U G73A: the self-cleavage stood at 1.09.

As to C17A A64G, the self-cleavage came to 0.24.

For A15U U41A, the self-cleavage worked out at 0.17.

Turning to A15U U41C, the self-cleavage stood at 0.92.

With A15U U41G, the self-cleavage is 0.26.

For G16C A57G, the self-cleavage is 0.57.

As to G16C U54C, the self-cleavage is 0.46.

As for G16C C23A, the self-cleavage worked out at 0.5.

As to G16C U66C, the self-cleavage was determined as 0.16.

On to A15U G24C, for which the self-cleavage was 0.08.

As to C17U A75U, the self-cleavage was found to be 0.81.

On to G16U C81U, for which the self-cleavage was determined as 0.35.

Consider G16A A21G, for which the self-cleavage worked out at 0.16.

In the case of G16A A21U, the self-cleavage amounted to 0.2.

On to A15U C71U, for which the self-cleavage was 0.33.

In the case of C17A A21G, the self-cleavage stood at 0.25.

Take A15U G55U: the self-cleavage stood at 0.68.

Consider A15U G55A, for which the self-cleavage is 0.46.

A15U G70C: the self-cleavage worked out at 0.17.

As for A15U G70A, the self-cleavage amounted to 0.32.

In the case of C17A A20G, the self-cleavage came out at 0.3.

Regarding G16C A20G, the self-cleavage is 0.11.

With G16A A77G, the self-cleavage worked out at 0.54.

As to G16C U25C, the self-cleavage is 0.21.

On to G16C U51A, for which the self-cleavage was 0.11.

G16C U51G: the self-cleavage was found to be 0.52.

For G16A U43C, the self-cleavage was 0.39.

G16A U43A: the self-cleavage worked out at 0.74.

C17G U78C: the self-cleavage was determined as 0.48.

As for C17G U72A, the self-cleavage was determined as 0.21.

Consider C17G U72C, for which the self-cleavage stood at 0.31.

Regarding C17G G53C, the self-cleavage was found to be 0.45.

For the variant C17U A20G, the self-cleavage was 0.45.

In the case of A15U G30U, the self-cleavage came out at 0.15.

As to A15U G30C, the self-cleavage was found to be 0.15.

On to A15U G61A, for which the self-cleavage worked out at 0.37.

On to A15U G61C, for which the self-cleavage turned out to be 0.07.

On to A15U C68U, for which the self-cleavage turned out to be 0.26.

Turning to G16C U49C, the self-cleavage is 0.08.

As for C17U C34A, the self-cleavage turned out to be 0.16.

G16A U49A: the self-cleavage is 0.4.

Consider G16C U60C, for which the self-cleavage is 0.2.

For G16C U60A, the self-cleavage is 0.29.

With C17A A35G, the self-cleavage is 0.49.

As for C17G A35U, the self-cleavage stood at 0.32.

For the variant C17G A35G, the self-cleavage was determined as 1.04.

As to C17A U49C, the self-cleavage amounted to 0.19.

On to G16U U31C, for which the self-cleavage stood at 0.19.

For the variant C17A A57G, the self-cleavage came out at 0.34.

G16C U78C: the self-cleavage is 0.22.

On to C17G U58C, for which the self-cleavage amounted to 0.22.

On to A15U U69C, for which the self-cleavage stood at 0.35.

With A15U U69G, the self-cleavage was 0.34.

For A15U U69A, the self-cleavage came to 0.25.

On to G16U A28U, for which the self-cleavage was determined as 0.26.

In the case of G16U A28G, the self-cleavage came to 0.18.

Turning to C17U G46U, the self-cleavage worked out at 0.23.

For C17G A47G, the self-cleavage was determined as 0.28.

For G16A G33U, the self-cleavage came out at 0.18.

Turning to G16C A21U, the self-cleavage is 0.1.

With G16C A21G, the self-cleavage amounted to 0.32.

As for G16U U80A, the self-cleavage stood at 0.52.

Turning to G16U U80C, the self-cleavage was 0.7.

Regarding C17G U31C, the self-cleavage turned out to be 0.28.

Take C17G G33A: the self-cleavage came to 0.24.

Regarding G16A A57G, the self-cleavage is 0.27.

Take G16U U26C: the self-cleavage was found to be 0.24.

Consider G16U U26A, for which the self-cleavage stood at 0.26.

On to G16A A45C, for which the self-cleavage turned out to be 0.14.

Turning to G16A A45G, the self-cleavage came to 0.45.

Take A15U U43G: the self-cleavage was 0.25.

Consider A15U U43A, for which the self-cleavage worked out at 0.88.

As for A15U U43C, the self-cleavage was determined as 0.41.

With G16C U26A, the self-cleavage is 0.3.

As to G16C U26C, the self-cleavage is 0.23.

Consider G16A C23A, for which the self-cleavage stood at 0.08.

As for C17U A18G, the self-cleavage was 0.23.

Turning to G16A U58A, the self-cleavage came to 0.12.

As to C17A A75U, the self-cleavage turned out to be 0.2.

For C17G A65U, the self-cleavage is 0.19.

For C17G A65G, the self-cleavage turned out to be 0.25.

Consider G16C A77G, for which the self-cleavage was found to be 0.21.

Consider C17A A28G, for which the self-cleavage came to 0.22.

In the case of G16C U31C, the self-cleavage came out at 0.18.

With A15U G63U, the self-cleavage was 0.93.

In the case of A15U G63A, the self-cleavage was determined as 0.67.

Regarding C17U G61U, the self-cleavage came to 0.27.

G16U G33C: the self-cleavage is 0.09.

As to G16U G33A, the self-cleavage was 0.32.

As for C17G U26A, the self-cleavage turned out to be 0.29.

For the variant C17G U26C, the self-cleavage worked out at 0.16.

As for C17U A57G, the self-cleavage was found to be 0.51.

Take C17A U67C: the self-cleavage is 0.44.

Consider C17A U43C, for which the self-cleavage worked out at 0.32.

For C17U G55A, the self-cleavage came to 0.38.

Regarding C17A U60C, the self-cleavage was 0.18.

In the case of C17A U60A, the self-cleavage is 0.26.

Consider G16A A35G, for which the self-cleavage was determined as 1.02.

For the variant A15U C59G, the self-cleavage stood at 0.1.

In the case of C17U C37A, the self-cleavage was determined as 0.09.

As to G16C A35G, the self-cleavage came out at 0.83.

Take C17U A65U: the self-cleavage amounted to 0.55.
